{"source": "paper PMC6328559", "about": "“Structure of the SLy1 SAM homodimer reveals a new interface for SAM domain self-association” (Scientific Reports, 2019)", "proteins": {"B1": {"name": "SLy1 SAM domain construct SAMlg (SLy1 residues G249-E321 preceded by a glycine-proline tag) (domain or fragment, mouse)", "chain": "GPGKRPKPKTLHELLERIGLEEHTSTLLLNGYQTLEDFKELRETHLNELNIMDPQHRAKLLTAAELLLDYDTGSE", "notes": "glycine-proline left from the tag after PreScission cleavage; SLy1 (SASH3), murine, UniProtKB Q8K352, residues 249-321; 75 residues; In MST 60 nM of the protein carried amine-reactive Alexa Fluor 488; For DOSY the protein was 15N labelled; also called N-terminally extended SLy1 SAM domain construct; source: E. coli BL21(DE3), GST fusion, purified (Glutathione Sepharose, PreScission cleavage, …)"}}, "key": {"[1]": {"target": "the molecule itself", "test": "AUC; sedimentation equilibrium, 30 °C, standard buffer (50 mM potassium phosphate, 20 mM NaCl, 0.1 mM EDTA, pH 6.4) without NaN3; three loading concentrations (SAMwt 60, 120, 300 µM; SAMlg 31, 64, 98 µM) at several speeds; global fit to a monomer-dimer equilibrium; dimer to monomers"}, "[2]": {"target": "the molecule itself", "test": "MST; Alexa Fluor 488 labelled protein kept constant (SAMwt 70 nM, SAMlg 60 nM), total protein varied (SAMwt 1.1-824 µM, SAMlg 0.2-250 µM); standard buffer pH 6.4, room temperature; fit to a monomer-dimer equilibrium; dimer to monomers"}}}
{"protein": "B1", "values": [{"measurement": "Kd", "setting": "[1]", "value": 2.2, "unit": "µM"}, {"measurement": "stoichiometry N", "setting": "[1]", "value": 2}, {"measurement": "Kd", "setting": "[2]", "value": "5.4 ± 1.4", "unit": "µM"}]}
